Two molecules from PMC2172186 (The Journal of Cell Biology, 2004) can be followed below.

In experiment [1] the target is TgMyoA (Toxoplasma gondii myosin-A, class XIV myosin) (Toxoplasma gondii (endogenous in RH strain parasites)) (UniProt O00934). Description: co-IP.
Experiment [2] addresses TgMyoA (Toxoplasma gondii myosin-A, class XIV myosin) (Toxoplasma gondii (endogenous in RH …, UniProt O00934 1-831)). Put plainly: co-IP.

With “TgMLC1 (Toxoplasma gondii myosin light chain-1) (natural protein)”, the molar ratio to TgMyoA in the complex in experiment [1] turned out to be 1.38.

B1: TgGAP45 (Toxoplasma gondii gliding-associated protein 45) (natural protein, UniProt Q7Z289 1-245, looked up)
chain: MGNACKKNTAKTPTRKEAEDLAEKERQEREAKEKAEAEEKARAEAEKNAADKAEAERRAAEAREREESARKEAEAEAARKAEAEAAEAERLRKEAEKKKAEEAKRKAEEEQRAAAEEAEQRAREEAERRKAEAAAAAERERQMQEALKQEEMSPREKYDKLASPEDSASETTMATQPQKVAEHSSAAVTDRSVVGYTVTPCDMAAIDETAKYLSKRCGCDLGDQHDENECPICRHIDLSDAPLLN
As for B1, the “molar ratio to TgMyoA in the complex” value in experiment [2] came out at 1.31.
